Laboratory results taken from patent US20260207767A1.

How the values were obtained:
[1] = target: human PD-1 expressed on cells (human) (UniProt Q15116); assay: flow cytometry, CHO-S hPD-1
[2] = target: cynomolgus PD-1 expressed on cells (cynomolgus monkey) (UniProt B0LAJ3); assay: flow cytometry, CHO-S Cyno-PD-1
[3] = target: recombinant cynoPD-1 (construct not stated) (cynomolgus monkey) (UniProt B0LAJ3); assay: ELISA
[4] = target: recombinant hPD-1 (construct not stated) (human) (UniProt Q15116); assay: ELISA
Chain of recombinant hPD-1 (construct not stated) (human) (Q15116 25-167 limits assumed): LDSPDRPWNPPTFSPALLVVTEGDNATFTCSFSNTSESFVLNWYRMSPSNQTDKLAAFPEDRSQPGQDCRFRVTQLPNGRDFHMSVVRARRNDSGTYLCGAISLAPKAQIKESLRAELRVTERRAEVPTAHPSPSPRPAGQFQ

Chain of recombinant cynoPD-1 (construct not stated) (cynomolgus monkey) (B0LAJ3 entry or part of it limits assumed): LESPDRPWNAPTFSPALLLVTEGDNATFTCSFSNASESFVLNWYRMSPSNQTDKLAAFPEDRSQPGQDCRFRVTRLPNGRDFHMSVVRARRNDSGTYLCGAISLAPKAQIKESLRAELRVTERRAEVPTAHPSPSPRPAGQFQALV
Chain of cynomolgus PD-1 expressed on cells (cynomolgus monkey) (B0LAJ3 entry or part of it limits assumed): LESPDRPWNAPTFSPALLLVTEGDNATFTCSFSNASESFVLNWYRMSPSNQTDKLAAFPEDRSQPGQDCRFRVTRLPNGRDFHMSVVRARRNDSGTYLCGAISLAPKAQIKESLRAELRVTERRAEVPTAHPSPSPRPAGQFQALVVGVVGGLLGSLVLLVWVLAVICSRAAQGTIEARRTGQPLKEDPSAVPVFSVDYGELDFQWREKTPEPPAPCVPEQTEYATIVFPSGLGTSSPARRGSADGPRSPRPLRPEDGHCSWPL
Chain of human PD-1 expressed on cells (human) (Q15116 25-288): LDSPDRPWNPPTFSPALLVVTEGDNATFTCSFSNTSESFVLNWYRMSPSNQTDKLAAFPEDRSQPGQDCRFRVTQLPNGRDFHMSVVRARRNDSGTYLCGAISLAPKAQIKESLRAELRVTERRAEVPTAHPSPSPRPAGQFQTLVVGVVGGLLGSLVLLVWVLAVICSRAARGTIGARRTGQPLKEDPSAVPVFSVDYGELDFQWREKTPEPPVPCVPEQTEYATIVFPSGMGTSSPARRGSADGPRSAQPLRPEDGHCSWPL

A Max MFI [1] of 184 MFI, a Max MFI [2] of 206 MFI and a Max OD [3] of 0.07 OD were found for NC.hIgG1 (antibody) in this work. It also gave a Max OD [4] of 0.05 OD.
